The values below come from publication PMC10815899 (2024).

In assay [1] the target is T1, epithelial adhesin 6 of N. glabratus (N. glabratus (endogenous), UniProt Q6FX55 1-715).
T1 chain: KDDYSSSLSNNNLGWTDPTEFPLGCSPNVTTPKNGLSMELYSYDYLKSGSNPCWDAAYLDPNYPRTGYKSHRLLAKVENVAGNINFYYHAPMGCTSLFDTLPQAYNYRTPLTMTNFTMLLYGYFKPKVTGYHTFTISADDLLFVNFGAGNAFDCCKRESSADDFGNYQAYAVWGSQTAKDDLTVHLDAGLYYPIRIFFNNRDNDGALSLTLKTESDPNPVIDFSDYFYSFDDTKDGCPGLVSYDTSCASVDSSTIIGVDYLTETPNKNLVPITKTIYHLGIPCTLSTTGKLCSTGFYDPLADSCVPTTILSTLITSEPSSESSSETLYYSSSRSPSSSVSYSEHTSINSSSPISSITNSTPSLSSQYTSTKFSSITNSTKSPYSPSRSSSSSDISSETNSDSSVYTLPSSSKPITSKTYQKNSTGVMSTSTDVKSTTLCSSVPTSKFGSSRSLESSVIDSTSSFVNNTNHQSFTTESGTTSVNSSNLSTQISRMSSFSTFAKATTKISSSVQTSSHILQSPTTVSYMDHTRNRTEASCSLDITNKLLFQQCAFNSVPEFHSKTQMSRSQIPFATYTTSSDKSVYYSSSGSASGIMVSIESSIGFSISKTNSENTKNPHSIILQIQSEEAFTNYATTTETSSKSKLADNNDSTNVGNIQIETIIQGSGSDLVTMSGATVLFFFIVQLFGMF
The assay can be described thus: BLI. A general note: Biolayer interferometry detects binding as a change in optical thickness at a sensor tip.

Assay [2] deals with T1, epithelial adhesin 6 of N. glabratus. The assay can be described thus: BLI.
The target is the same in assay [3]. Briefly: SPR. A general note: Surface plasmon resonance follows binding to a sensor surface in real time, without labels.

B1: cytoplasmic Nakaseomyces glabratus glyceraldehyde 3-phosphate dehydrogenase (enzyme)
chain: MVRIAINGFGRIGRLVLRVALSRSNIEVVAVNDPFITTDYAAYMFKYDSTHGRYAGEVTHDDKHIIIDGKKIAVHQERDPANLPWGSENIDIAIDSTGVFKELDTAQKHIDAGAKKVVITAPSSTAPMFVVGVNEDKYTSDLKIVSNASCTTNCLAPLAKVIDEAFGIEEGLMTTVHSLTATQKTVDGPSHKDWRGGRTASGNIIPSSTGAAKAVGKVLPQLQGKLTGMAFRVPTVDVSVVDLTVKLQKETTYDEIKKVIKQASEGKLKGVLGYTEDAVVSSDFLGDSRSSIFDASAGIQLSPKFVKLVSWYDNEYGYSTRVVDLVEHVAKN
modifications: biotin (NHS-biotin) in the microplate ligand-binding assays
Regarding B1, binding in assay [1] was characterised by a dissociation constant (Kd) of 6.89 nM. The koff (commonly the rate constant with which the complex falls apart) came out at 0.00195 s⁻¹ in assay [2] and 0.000209 s⁻¹ in assay [3].
